Laboratory results from US20220348651A1 (Novartis, published 2022).

T1: cyno ENTPD2 expressed on NIH/3T3 cells (cynomolgus macaque, UniProt Q9Y5L3 1-495 (human entry))
T1 construct: also called NIH3T3 cynoENTPD2; Cyno ENTPD2 NIH/3T3
T1 chain: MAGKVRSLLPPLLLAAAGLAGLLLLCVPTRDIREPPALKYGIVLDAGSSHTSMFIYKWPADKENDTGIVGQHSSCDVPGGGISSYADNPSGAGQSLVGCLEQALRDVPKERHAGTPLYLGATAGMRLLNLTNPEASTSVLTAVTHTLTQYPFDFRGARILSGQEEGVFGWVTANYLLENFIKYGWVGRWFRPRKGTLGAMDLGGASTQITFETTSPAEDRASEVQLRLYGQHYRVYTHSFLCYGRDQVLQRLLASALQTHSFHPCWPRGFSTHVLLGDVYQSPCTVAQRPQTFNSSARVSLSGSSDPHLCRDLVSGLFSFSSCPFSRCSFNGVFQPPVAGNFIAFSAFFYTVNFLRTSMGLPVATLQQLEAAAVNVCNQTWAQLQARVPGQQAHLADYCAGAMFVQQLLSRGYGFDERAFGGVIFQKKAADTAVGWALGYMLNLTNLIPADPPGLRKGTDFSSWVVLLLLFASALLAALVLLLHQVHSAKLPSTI

T2: human ENTPD2 expressed on cells (human, UniProt Q9Y5L3 1-495)
T2 construct: full-length human ENTPD2 on engineered cells; also called NIH3T3 humanENTPD2; NIH/3T3-hENTPD2
T2 sequence: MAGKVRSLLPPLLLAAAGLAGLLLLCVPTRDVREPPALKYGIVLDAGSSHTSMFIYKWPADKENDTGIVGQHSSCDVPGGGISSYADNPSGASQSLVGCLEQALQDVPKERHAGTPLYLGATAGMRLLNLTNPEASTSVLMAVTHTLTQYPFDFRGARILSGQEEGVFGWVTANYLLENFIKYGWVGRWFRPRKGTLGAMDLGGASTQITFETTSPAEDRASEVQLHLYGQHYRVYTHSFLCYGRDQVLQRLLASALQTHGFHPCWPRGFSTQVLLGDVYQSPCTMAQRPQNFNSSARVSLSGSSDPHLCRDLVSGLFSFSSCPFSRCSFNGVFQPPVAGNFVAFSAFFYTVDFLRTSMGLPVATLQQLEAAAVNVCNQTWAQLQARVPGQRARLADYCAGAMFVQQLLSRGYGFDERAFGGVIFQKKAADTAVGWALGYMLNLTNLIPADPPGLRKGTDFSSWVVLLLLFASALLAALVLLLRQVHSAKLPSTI

T3: ENTPD3 of H520 cells (UniProt O75355 1-529, limits assumed)
T3 construct: whole, on cells
T3 sequence (looked up): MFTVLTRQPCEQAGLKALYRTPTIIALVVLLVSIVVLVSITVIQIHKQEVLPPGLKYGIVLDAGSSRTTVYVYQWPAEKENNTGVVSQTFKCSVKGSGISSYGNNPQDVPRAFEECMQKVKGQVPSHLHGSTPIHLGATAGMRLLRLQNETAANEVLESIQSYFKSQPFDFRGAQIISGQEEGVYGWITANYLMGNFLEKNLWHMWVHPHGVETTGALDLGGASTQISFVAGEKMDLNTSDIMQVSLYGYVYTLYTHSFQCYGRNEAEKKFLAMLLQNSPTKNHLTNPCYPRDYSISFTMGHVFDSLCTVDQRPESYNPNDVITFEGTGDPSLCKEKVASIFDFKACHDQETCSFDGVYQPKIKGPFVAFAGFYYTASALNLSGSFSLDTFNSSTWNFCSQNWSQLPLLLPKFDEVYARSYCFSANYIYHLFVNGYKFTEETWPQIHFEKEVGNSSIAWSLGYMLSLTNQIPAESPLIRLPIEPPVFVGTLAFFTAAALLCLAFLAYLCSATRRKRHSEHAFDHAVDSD

T4: ENTPD8 of H520 cells (UniProt Q5MY95 1-495, limits assumed)
T4 construct: whole, on cells
T4 sequence (looked up): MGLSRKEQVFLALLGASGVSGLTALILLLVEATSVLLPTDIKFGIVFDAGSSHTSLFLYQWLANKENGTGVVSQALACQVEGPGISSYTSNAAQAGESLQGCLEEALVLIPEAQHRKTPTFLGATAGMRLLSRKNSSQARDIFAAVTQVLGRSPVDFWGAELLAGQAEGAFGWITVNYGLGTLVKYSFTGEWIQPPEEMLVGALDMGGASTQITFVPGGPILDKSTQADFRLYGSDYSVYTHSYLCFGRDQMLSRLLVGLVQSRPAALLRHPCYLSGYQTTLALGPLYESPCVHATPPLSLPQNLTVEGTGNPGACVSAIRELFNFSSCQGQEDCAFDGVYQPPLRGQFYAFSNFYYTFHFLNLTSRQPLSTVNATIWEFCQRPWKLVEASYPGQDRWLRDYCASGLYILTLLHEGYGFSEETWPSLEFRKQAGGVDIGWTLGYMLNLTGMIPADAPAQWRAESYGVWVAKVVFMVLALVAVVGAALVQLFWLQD


Assays:
[1] = target: T1, cyno ENTPD2 expressed on NIH/3T3 cells; assay: flow cytometry, NIH3T3 cyno ENTPD2 cells
[2] = target: T2, human ENTPD2 expressed on cells; assay: flow cytometry, NIH3T3 human ENTPD2 cells
ENTPD3 of H520 cells = target: T3, ENTPD3 of H520 cells; assay: flow cytometry, H520 cells
ENTPD8 of H520 cells = target: T4, ENTPD8 of H520 cells; assay: flow cytometry, H520 cells
[3] = target: T2, human ENTPD2 expressed on cells; assay: flow cytometry, RKO cells (endogenous ENTPD2)
Method: FACS screening: Specific binding of candidate antibodies to endogenously expressed ENTPD2 was assessed by flow cytometry. […] Geometric mean fluorescence intensity was calculated on live single cells using FlowJo software.

[4] = target: T2, human ENTPD2 expressed on cells; assay: cell-based or functional assay
[5] = target: T1, cyno ENTPD2 expressed on NIH/3T3 cells; assay: cell-based or functional assay

Binder | EC50 [1] [nM] | EC50 [2] [nM] | binding result (ENTPD3 of H520 cells) | binding result (ENTPD8 of H520 cells) | EC50 [3] [nM] | % inhibition, Human ENTPD2 NIH/3T3 Assay [4] [%] | % inhibition, RKO Assay [4] [%] | IC50, Human ENTPD2 NIH/3T3 Assay [4] [nM] | IC50, RKO Assay [4] [nM] | % inhibition, Cyno ENTPD2 NIH/3T3 Assay [5] [%] | IC50, Cyno ENTPD2 NIH/3T3 Assay [5] [nM]
ANTI-HUMAN ENTPD2 MAB2 (antibody, human IgG1, kappa, humanized from mAb17; human IgG1, kappa; also called Anti-ENTPD2 mAb2) heavy: not shown light: EIVLTQSPATLSASPGERITLSCSASSSVSYIHWYQQKPGQAPRLLIYSTSNLASGIPARFSGSGSGTFYTLTISSVEPEDAAVYYCHQWSSYPWTFGGGTKLEIKRTVAAPSVFIFPPSDEQLKSGTASVVCLLNNFYPREAKVQWKVDNALQSGNSQESVTEQDSKDSTYSLSSTLTLSKADYEKHKVYACEVTHQGLSSPVTKSFNRGEC | 4.2 | 2.1 | no binding (tested: 50 nM) | no binding (tested: 50 nM) | 1.3 | 98 | 86 | 1.4 | 0.8 | 84 | 2.7
ANTI-HUMAN ENTPD2 MAB3 (antibody, human IgG1, kappa, V domains shown, humanized from mAb17; human IgG1, kappa; also called Anti-ENTPD2 mAb3) VH: QVQLVQSGAEVVKPGASVKISCKASGYTFTDYNMDWVKQAPGQRLEWIGDINPKYDISTYNQQFKGKATITVDTSASTAYMELSSLRSEDTAVYYCARRGFFLYYGINYYYFDVWGQGTLVTVSS VL: EIVLTQSPATLSASPGERITLSCSASSSVSYIHWYQQKPGQAPRLLIYSTSNLASGIPARFSGSGSGTFYTLTISSVEPEDAAVYYCHQWSSYPWTFGGGTKLEIKR | 5.4 | 2.8 | no binding (tested: 50 nM) | no binding (tested: 50 nM) | 2.1 | 91 | 95 | 1.8 | 1.6 | 84 | 5.8
ANTI-HUMAN ENTPD2 MAB4 (antibody, human IgG1, kappa, V domains shown, humanized and optimized from mAb16; human IgG1, kappa; also called Anti-ENTPD2 mAb4) VH: QIQLQESGPGLVKPSQTLSLTCTVSGYSITSGYYWNWIRQHPGKGLEWIGYISYDADNNYNPSLKNRVTISRDTSKNQFSLKLSSVTAADTAVYYCAGGYYRYGLGSYRGSYYYVMDYWGQGTTVTVSS VL: ETVLTQSPATLSVSPGERATISCKASQSVDYEGHSYMNWYQQKPGQAPRLLIYAASNLESGIPARFSGSGSGTDFTLTISSVEPEDAATYYCQQSNEDPPTFGGGTKLEIKR | 6.1 | 0.9 | no binding (tested: 50 nM) | no binding (tested: 50 nM) | 0.5 | 87 | 74 | 0.2 | 0.2 | 75 | 2.2
ANTI-HUMAN ENTPD2 MAB1 (antibody, human IgG1, kappa, humanized from mAb17; human IgG1, kappa; also called anti-ENTPD2 mAb1) heavy: not shown light: DIQLTQSPSSLSASVGDRVTITCSASSSVSYIHWFQQKPGKAPKLLIYSTSNLASGVPSRFSGSGSGTFFTLTISSLQPEDFATYFCHQWSSYPWTFGQGTKVEIKRTVAAPSVFIFPPSDEQLKSGTASVVCLLNNFYPREAKVQWKVDNALQSGNSQESVTEQDSKDSTYSLSSTLTLSKADYEKHKVYACEVTHQGLSSPVTKSFNRGEC | 3.3 | 1.5 | no binding (tested: 50 nM) | no binding (tested: 50 nM) | 0.9 | 92 | 97 | 1.1 | 0.8 | 91 | 4.1

The remaining lines, values ahead:

EC50 [1] [nM] | EC50 [2] [nM] | binding result (ENTPD3 of H520 cells) | binding result (ENTPD8 of H520 cells) | EC50 [3] [nM] | % inhibition, Human ENTPD2 NIH/3T3 Assay [4] [%] | % inhibition, RKO Assay [4] [%] | IC50, Human ENTPD2 NIH/3T3 Assay [4] [nM] | IC50, RKO Assay [4] [nM] | % inhibition, Cyno ENTPD2 NIH/3T3 Assay [5] [%] | IC50, Cyno ENTPD2 NIH/3T3 Assay [5] [nM] | Binder
0.8 | 0.5 | no binding (tested: 50 nM) | no binding (tested: 50 nM) | 0.4 | 95 | 92 | 0.8 | 0.6 | 82 | 2.7 | ANTI-HUMAN ENTPD2 MAB7 (antibody, human IgG1, kappa, humanized from mAb17; human IgG1, kappa; also called Anti-ENTPD2 mAb7) heavy: not shown light: EIVLTQSPATLSASPGEEITLSCSASSSVSYIHWYQQKPGQAPRLLIYSTSNLASGIPARFSGSGSGTFYTLTISSVEPEDAAVYYCHQWSSYPWTFGGGTKLEIKRTVAAPSVFIFPPSDEQLKSGTASVVCLLNNFYPREAKVQWKVDNALQSGNSQESVTEQDSKDSTYSLSSTLTLSKADYEKHKVYACEVTHQGLSSPVTKSFNRGEC
5.2 | 0.9 | no binding (tested: 50 nM) | no binding (tested: 50 nM) | 0.4 | 95 | 80 | 0.3 | 0.2 | 80 | 1.5 | ANTI-HUMAN ENTPD2 MAB5 (antibody, human IgG1, kappa, V domains shown, humanized and optimized from mAb16; human IgG1, kappa; also called Anti-ENTPD2 mAb5) VH: QIQLQESGPGLVKPSQTLSLTCTVSGYSITSGYYWNWIRQHPGKGLEWIGYISYDADNNYNPSLKNRVTISRDTSKNQFSLKLSSVTAADTAVYYCAGGYYRYGLGSYRGSYYYVMDYWGQGTTVTVSS VL: ETVLTQSPATLSVSPGERATISCKASQSVDYDGNSYMNWYQQKPGQAPRLLIYAASNLESGIPARFSGSGSGTDFTLTISSVEPEDAATYYCQQSNEDPPTFGGGTKLEIKR
